Laboratory results as given in patent US20240400708A1.
Residue numbers refer to the chain shown, from its start. Names may count otherwise. Blank lines part the entries; values can stand above or below the binder they belong to.

Experiments:
[1] = biological target: feline FcRn complex (FcRn-α subunit and β-microglobulin) (feline); test: SPR (Biacore), FcRn on SA chip, pH 6
[2] = biological target: feline FcRn complex (FcRn-α subunit and β-microglobulin) (feline); test: SPR (Biacore), FcRn on SA chip, pH 7.4

B1: feline IgG1a mutant ID No. 252: S428M, S434F (antibody, part only; not given: variable domains and light chain, not shown: another chain or arm of the molecule)
constant: ASTTAPSVFPLAPSCGTTSGATVALACLVLGYFPEPVTVSWNSGALTSGVHTFPAVLQASGLYSLSSMVTVPSSRWLSDTFTCNVAHPPSNTKVDKTVRKTDHPPGPKPCDCPKCPPPEMLGGPSIFIFPPKPKDTLSISRTPEVTCLVVDLGPDDSDVQITWFVDNTQVYTAKTSPREEQFNSTYRVVSVLPILHQDWLKGKEFKCKVNSKSLPSPIERTISKAKGQPHEPQVYVLPPAQEELSRNKVSVTCLIKSFHPPDIAVEWEITGQPEPENNYRTTPPQLDSDGTYFVYSKLSVDRSHWQRGNTYTCSVMHEALHFHHTQKSLTQSPGK
Kd [1]: 0.19 nM | Kd [2]: 27.4 nM

B2: feline IgG1a mutant ID No. 270: S252F, S434W, Q311W (antibody, part only; not given: variable domains and light chain, not shown: another chain or arm of the molecule)
constant: B1 constant with S138F, Q197W, M316S, F322W
Kd [1]: 3.68 nM | Kd [2]: 2640 nM

B4: feline IgG1a mutant ID No. 293: S252Y, S428Y, Q311W, D312P, S434Y (antibody, part only; not given: Variable domains, not shown: another chain or arm of the molecule; small tags and cut ends)
constant: B1 constant with S138Y, Q197W, D198P, M316Y, F322Y
Kd [1]: 1.07 nM | Kd [2]: 2930 nM

B5: feline IgG1a mutant ID No. 299: S428Y, Q311W, D312P, L314K, S434Y (antibody, part only; not given: variable domains and light chain, not shown: another chain or arm of the molecule)
constant: B1 constant with Q197W, D198P, L200K, M316Y, F322Y
Kd [1]: 1.17 nM | Kd [2]: 79.6 nM

B6: feline IgG1a mutant ID No. 300: S428Y, Q311W, D312P, S434Y (antibody, part only; not given: Variable domains, not shown: another chain or arm of the molecule)
constant: B1 constant with Q197W, D198P, M316Y, F322Y
Kd [1]: 0.235 nM | Kd [2]: 182 nM

B8: feline IgG1a mutant ID No. 277: S252R, S434W (antibody, part only; not given: Variable domains, not shown: another chain or arm of the molecule)
constant: B1 constant with S138R, M316S, F322W
Kd [1]: 7.1 nM | Kd [2]: 6600 nM

B9: feline IgG1a mutant ID No. 288: S252Y, S428Y, D312P, S434Y (antibody, part only; not given: Variable domains, not shown: another chain or arm of the molecule)
constant: B1 constant with S138Y, D198P, M316Y, F322Y
Kd [1]: 0.0268 nM | Kd [2]: 3.22 nM

B10: feline IgG1a mutant ID No. 297: S428Y, D312P, L314K, S434Y (antibody, part only; not given: Variable domains, not shown: another chain or arm of the molecule)
constant: B1 constant with D198P, L200K, M316Y, F322Y
Kd [1]: 0.898 nM | Kd [2]: 82.9 nM

B12: feline IgG1a mutant ID No. 295: S252Y, S428Y, Q311W, L314K, S434Y (antibody, part only; not given: Variable domains, not shown: another chain or arm of the molecule; small tags and cut ends)
constant: B1 constant with S138Y, Q197W, L200K, M316Y, F322Y
Kd [1]: 0.675 nM | Kd [2]: 201 nM

B15: feline IgG1a mutant ID No. 285: S252Y, Q311W, L314K, S434Y (antibody, part only; not given: Variable domains, not shown: another chain or arm of the molecule)
constant: B1 constant with S138Y, Q197W, L200K, M316S, F322Y
Kd [1]: 1.21 nM | Kd [2]: 1730 nM

B16: feline IgG1a mutant ID No. 274: S252R, S434H, Q311W (antibody, part only; not given: Variable domains, not shown: another chain or arm of the molecule)
constant: B1 constant with S138R, Q197W, M316S, F322H
Kd [1]: 5.62 nM | Kd [2]: 3850 nM

B17: feline IgG1a mutant ID No. 303: A431K, S434Y (antibody, part only; not given: variable domains and light chain, not shown: another chain or arm of the molecule)
constant: B1 constant with M316S, A319K, F322Y
Kd [1]: 1.33 nM | Kd [2]: 26.3 nM

B19: feline IgG1a mutant ID No. 256: S428M, S434W (antibody, part only; not given: variable domains and light chain, not shown: another chain or arm of the molecule)
constant: B1 constant with F322W
Kd [1]: 0.193 nM | Kd [2]: 31.6 nM

B20: feline IgG1a mutant ID No. 267: S252F, S434F, Q311W (antibody, part only; not given: Variable domains, not shown: another chain or arm of the molecule)
constant: B1 constant with S138F, Q197W, M316S
Kd [1]: 4.15 nM | Kd [2]: 4030 nM

B21: feline IgG1a mutant ID No. 272: S252R, S434F (antibody, part only; not given: variable domains, not shown: another chain or arm of the molecule)
constant: B1 constant with S138R, M316S
Kd [1]: 7.96 nM | Kd [2]: 11900 nM

B22: feline IgG1a mutant ID No. 290: S252Y, S428Y, Q311W, D312P (antibody, part only; not given: Variable domains, not shown: another chain or arm of the molecule; small tags and cut ends)
constant: B1 constant with S138Y, Q197W, D198P, M316Y, F322S
Kd [1]: 3.08 nM | Kd [2]: 254 nM

B23: feline IgG1a mutant ID No. 268: S252F, S434H, Q311W (antibody, part only; not given: Variable domains, not shown: another chain or arm of the molecule)
constant: B1 constant with S138F, Q197W, M316S, F322H
Kd [1]: 14.3 nM | Kd [2]: 10700 nM

Results, then the binder that gave them:

Kd [1]: 8.21 nM | Kd [2]: 24.4 nM
B3: feline IgG1a mutant ID No. 310: P247V, T250Q, S252H (antibody, part only; not given: variable domains and light chain, not shown: another chain or arm of the molecule; small tags and cut ends)
constant: B1 constant with P133V, T136Q, S138H, M316S, F322S

Kd [1]: 6.96 nM | Kd [2]: 1080 nM
B7: feline IgG1a mutant ID No. 319: S428Y, D312P, A431K, S434P (antibody, part only; not given: variable domains, not shown: another chain or arm of the molecule)
constant: B1 constant with D198P, M316Y, A319K, F322P

Kd [1]: 0.135 nM | Kd [2]: 25.3 nM
B11: feline IgG1a mutant ID No. 318: S428M, A431K, S434Y (antibody, part only; not given: Variable domains, not shown: another chain or arm of the molecule)
constant: B1 constant with A319K, F322Y

Kd [1]: 22.2 nM | Kd [2]: 15.6 nM
B13: feline IgG1a mutant ID No. 317: S428M, A431K, S434P (antibody, part only; not given: variable domains and light chain, not shown: another chain or arm of the molecule)
constant: B1 constant with A319K, F322P

Kd [1]: 0.338 nM | Kd [2]: 18.9 nM
B14: feline IgG1a mutant ID No. 329: S428Y, D312P, S434Y, Q311H, L314K (antibody, part only; not given: Variable domains, not shown: another chain or arm of the molecule; small tags and cut ends)
constant: B1 constant with Q197H, D198P, L200K, M316Y, F322Y

Kd [1]: 0.332 nM | Kd [2]: 28.6 nM
B18: feline IgG1a mutant ID No. 332: S428Y, D312P, S434Y, Q311R, L314K (antibody, part only; not given: Variable domains, not shown: another chain or arm of the molecule; small tags and cut ends)
constant: B1 constant with Q197R, D198P, L200K, M316Y, F322Y

Kd [1]: 0.908 nM | Kd [2]: 25.9 nM
B24: feline IgG1a mutant ID No. 333: S428Y, D312P, S434Y, Q311Y, L314K (antibody, part only; not given: Variable domains, not shown: another chain or arm of the molecule; small tags and cut ends)
constant: B1 constant with Q197Y, D198P, L200K, M316Y, F322Y

Kd [1]: 4.87 nM | Kd [2]: 2420 nM
B25: feline IgG1a mutant ID No. 316: S428M, A431K (antibody, part only; not given: Variable domains, not shown: another chain or arm of the molecule)
constant: B1 constant with A319K, F322S

Kd [1]: 0.0072 nM | Kd [2]: 11.1 nM
B26: feline IgG1a mutant ID No. 325: S428Y, D312P, S434Y, D401R, T403R (antibody, part only; not given: Variable domains, not shown: another chain or arm of the molecule)
constant: B1 constant with D198P, D289R, T291R, M316Y, F322Y
